From PMC10575957
Values belong to the substance of their own block, whether it stands above or below them.

What was measured:
Assay in all cases: cryo-EM structure; portal-tail complex of the native P-SCSP1u virion, symmetry-mismatch reconstruction, C6 symmetry, 3.8 Å; virions in SM buffer
[1] = target: P-SCSP1u adaptor protein (gp22) (cyanophage P-SCSP1u)
[2] = target: P-SCSP1u fiber protein (gp28) (cyanophage P-SCSP1u)
[3] = target: P-SCSP1u nozzle protein (gp23) (cyanophage P-SCSP1u)
[4] = target: P-SCSP1u portal protein (gp16) (cyanophage P-SCSP1u)

stoichiometry N [1]: 12
Substance: P-SCSP1u adaptor protein (gp22) (natural protein)

stoichiometry N [2]: 3
Substance: P-SCSP1u fiber protein (gp28) (natural protein)

stoichiometry N [3]: 6
Substance: P-SCSP1u nozzle protein (gp23) (natural protein)

stoichiometry N [4]: 12
Substance: P-SCSP1u portal protein (gp16) (natural protein)
